Earlier results on 1 substance are cited in article PMC6828933.

This series addresses eNOS (Homo sapiens) (UniProt P29474).
Sequence of UniProt P29474 (P29474 2-1203): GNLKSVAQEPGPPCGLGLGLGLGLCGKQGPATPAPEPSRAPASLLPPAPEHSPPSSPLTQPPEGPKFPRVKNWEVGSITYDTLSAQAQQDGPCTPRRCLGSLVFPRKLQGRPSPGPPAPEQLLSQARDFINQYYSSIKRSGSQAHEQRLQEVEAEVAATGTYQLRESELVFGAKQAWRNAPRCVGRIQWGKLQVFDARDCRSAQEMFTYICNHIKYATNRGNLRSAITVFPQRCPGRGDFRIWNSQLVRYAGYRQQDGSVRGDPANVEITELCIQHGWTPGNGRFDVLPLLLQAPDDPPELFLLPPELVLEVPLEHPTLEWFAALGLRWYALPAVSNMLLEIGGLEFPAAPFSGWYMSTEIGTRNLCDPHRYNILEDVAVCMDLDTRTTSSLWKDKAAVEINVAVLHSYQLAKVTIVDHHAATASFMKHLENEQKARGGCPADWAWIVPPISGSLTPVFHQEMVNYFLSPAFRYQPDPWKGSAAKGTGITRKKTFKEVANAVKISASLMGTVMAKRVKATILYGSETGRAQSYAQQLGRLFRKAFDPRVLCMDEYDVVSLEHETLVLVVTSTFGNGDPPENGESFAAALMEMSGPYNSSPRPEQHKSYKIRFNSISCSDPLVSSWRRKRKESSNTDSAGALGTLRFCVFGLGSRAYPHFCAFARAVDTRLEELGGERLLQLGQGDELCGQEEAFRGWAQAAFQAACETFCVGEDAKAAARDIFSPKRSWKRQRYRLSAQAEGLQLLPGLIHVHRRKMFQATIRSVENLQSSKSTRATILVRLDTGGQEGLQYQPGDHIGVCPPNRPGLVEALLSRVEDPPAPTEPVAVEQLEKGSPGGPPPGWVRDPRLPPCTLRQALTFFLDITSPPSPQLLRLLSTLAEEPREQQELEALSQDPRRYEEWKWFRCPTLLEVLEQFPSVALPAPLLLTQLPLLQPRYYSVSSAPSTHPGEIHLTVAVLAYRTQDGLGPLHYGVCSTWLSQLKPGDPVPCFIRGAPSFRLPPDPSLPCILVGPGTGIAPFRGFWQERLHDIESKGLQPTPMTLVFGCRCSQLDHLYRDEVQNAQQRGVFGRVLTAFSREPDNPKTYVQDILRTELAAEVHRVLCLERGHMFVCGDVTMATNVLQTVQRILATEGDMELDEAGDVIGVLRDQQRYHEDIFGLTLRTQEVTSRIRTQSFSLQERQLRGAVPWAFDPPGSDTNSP

By Kd is commonly meant the constant that tells how readily two partners part at equilibrium. Turning to Caveolin-1 90-99 (from UniProt Q03135), the Kd is 42 nM.
